Measurements published in patent publication US20250074988A1.

Molecular target: recombinant human PD-L1 protein (Item No. 10084-H08H, Sino Biological) (human) (UniProt Q9NZQ7)
Experiment: SPR, Biacore 8K, antibody captured on anti-human chip, huPD-L1 analyte, 1:1 model

Chain of recombinant human PD-L1 protein (Item No. 10084-H08H, Sino Biological) (human) (Q9NZQ7 19-238 limits assumed): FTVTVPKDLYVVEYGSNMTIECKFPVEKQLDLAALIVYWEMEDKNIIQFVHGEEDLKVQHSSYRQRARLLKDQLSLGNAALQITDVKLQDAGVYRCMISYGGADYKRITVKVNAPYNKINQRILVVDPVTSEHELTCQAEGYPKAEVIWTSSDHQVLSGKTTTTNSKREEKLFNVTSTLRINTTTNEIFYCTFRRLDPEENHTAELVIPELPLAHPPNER

Kd: 0.359 nM | koff: 0.00203 s⁻¹ | kon: 5.65e+06 M⁻¹ s⁻¹
Substance: MDX 1105 (antibody)
